Source: the NTF2 design screens of Basanta et al. (2020)

Experiment: protease stability score; higher = more stable; yeast display proteolysis, trypsin and chymotrypsin;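 note: log10 excess protease needed over predicted unfolded state with 0 meaning unfolded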

Sequence | protease stability score
DEEKEETTVEKLAKAVNTGDPDQIEDLADKDVRATIGDRQVHGREEMDRNMKEWEDKIDHLELKSVDVQGESAHANLDQRHNGRHVRMVAIAHVENGRAVEVVFRDQ | -0.157
DEEKEFHKMIKELDKVAKRNDEQSVQNLADKDVEVTYGDKSYHGREVLRRMFRDQLTRADKVRITMKSYTVRGDKAHAVLNVVLDHNGRQEHIDVKVTAQADNGRVRLKHVNIP | -0.039
DEEKEKEAADRASTNDPDEFRKMVDEDARVVVGEKQWHGREKVQKFYEDQKKRIDHLRVEHVDKDGNRVVITQFYQVNGVRVHAIFIITVHNGRLKMRSVQFTDEHAERRMKKAVS | 0.528
DEEKEKRTARQVADVLRSGNPDEMMKLADKDAEVRVGDHVLHGREEISKLMHELRRRIDHLEIKHVEVDNGSVNIVYVVRHNGKTEVVVLHVDFHNGKIREMTVRSG | 1.36
DEEKENRDIQTLMKNMVTGNEQEVMKNADKNVNLVVGDKTYHGREKIREFVRQLRERADHQEIKSVHATNGRAQADMVVNVNGKDIRFTVTMEASNGKAKHIQFDPNFFRKIQS | -0.079
DEEKEREMFKEFLNAFKSGDPDKLRKRMRQNVTLVYGDKSLHGRERAAKWFSELVKRVDHIEIESVKTDENHFDADVHLNVNGQNVIVHIRAKVENGRIVKVQYEYRDESQRRKLEK | 1.18
DEEKHAESAIHHIIKVFKENNPDQFRRNADPNVKVNVGEHEVDGRDDLAKYMVDEANRVDHASYEIVHLDVRGDKARARVRVIVKFDGQERKYEYVFVFVEQNGEVVITKVQHQ | 1.1
DEEKHAKEMADRFRKILDNGNEHSVEKMFDENARMSVGDRTIHGREKIAKKLITDVRRVDHLQVKVLSYHAHGDKIDLKVQQTLVVNGEDETRRYQMHLTRVNGRFVAVDAREQ | -0.07
DEEKHAKEVLDKFLKIAQEGDPKKMHELVDPNATFQVGDKEVHGRESAIESLQKFLEKVDHMRLEITEVRVRGNKFNIVAKLRADINGQKVDKRLIIVFTHHNGRLQMSHLRMD | 2.34
DEEKHDDFARKLVRAVQSNDFRQQEKMFRQDVRMRVGDKEVHGREQFRDWLRTLDEEVDRYEVKSVTAQGDKVKIVAVFRINGKQFTLTVTIHVSNGKAVNMRINPDQQRQQER | 0.104
DEEKHKQKLRKFAKDFVEGDPEEISKNVDEDVKVHIGDQDVSGREEAMKVIEEIKKRADHIQITSVEASNGRLRINVVIQVNGRNVTAHVTVDADNGRVKKVTMDPDQVRKLKS | 0.827
DEEKIAQKAVDRVEEAMNRGDPDTMKHLLDKDARITYGDQQYHGREEVIKFMDEFVENVDHVNVEFKEVEVHNGRARASARVVYTHNGQSHDVKLEVVFLIQGDEVRLTHLHYG | 2.11
DEEKIARHVVRTWMENLKTGNFKEIEKMIDKDVEFEIGDKTVTGREEVRKRRKHEKDQADHIEVQVHDVRARGDKVNIDVVMEINNNGRTTTRRFVLVLSIHNGHAKIKMVTQG | 1.09
DEEKIDRLLHEVVKAYLSGHSEKLKKLLKEDGQLHALSQTYHGKEQVMKVAEEFKRYGVELQIQDQKTEGDTLKVKAQAHKGGTTWEFEVKVKADGGKADELTIKVSEEAHKMIQRG | -0.298
DEEKIKQLLQKMIQYYVSGNKDHLKQLGKDDVQLHAADQTYHGLDQLLKVAEQFKKYGVKLEVKDVKVDGNTIHADVEVTMGGTQWTFKVTAEADGGKVDKVQFDVSEEAKKRIQKG | 0.959
DEEKILKIIDRAVKAIQNGNEEEIRKLGMPNGEAQVGNDRNHGQDALVVMVKMYQKLGNEFEYKEKREEGDQVTTVVQVTFGGTTVEYEVNVQAEGGHIKRWEVRVDETFMKHVEKS | -0.125
DEEKILQDLIKTYQDLAKTNDFESMAKEADEDAHVNIGDKEVHGRESLNKHFRQLQKEVDHVEVDVRDYRVHGDKFEIKFVVNNQRDGQTDRKTVRIEYVQNGDKVRAKSFTTG | -0.176
DEEKILRVLKEVVKAIQNGNKEEVRKKGKPDVEVQLADERNRGVDQLVRLAEFDKKLGVQFEYKETRQKGGKMTTVVEVTLDGTTIRYEVHVEAEGGKVKRWEVRMDKKFIRIAQES | 0.077

Sequence | protease stability score
DEEKKANHFNKEFDRNVQRNNETELRKMVDPNARVNVGEQNYSGRNKMVKIITDWLRKYDKFTIDVRRIDVHGNRIFIDFEMVVVSNGQRRTTEIRVVVEEHNGRLHIRVWEIT | 0.516
DEEKKARQALKNLVQNLRTGDEDELRKMIDKDATVRVGDEEIHGRERIAKTLLEEVKEVDHFEQHVRSITRDGDKLVIVVTQKNNHNGENQHRTVTIWIHERNGELLIQSMEYK | 0.504
DEEKKARQLLKRWLRAVSQNDPKKLSEQMDPNARVEYGDKELHGMHQIENWLREQLKHIDHIEIDVKDMTVNGNEAQVQFRFVNRHNGKEDTKEARMQAELHNGTVKVRRIRYS | 0.389
DEEKKARRWFESFIEVFRSNDPDQAKKLADPNVRAEYGDKHYHGREEFMKHFITLAERVDHVDIELHSLRIDGNRIVMNMRYRLRYNGRTESNEVTVILVIKNGKLHIQEVREG | 1.41
DEEKKDKASEMVRAEQKNNPDKVNELADKNAKFNIGDKRIHGREHLKKTIETENREARYDIDEVDVRAKNGKVDVKMSMRVRHNGRPDRFHVEQTVRFNNGKAQEVTRHKKK | -0.299
DEEKKRRVAQKIAKLVQTGDPRDVETMMRDDVRANYGDKEYHGRENVSTFADRQVKKVDHRHIESVKNSGEQLVVDMRFVINGHNVRFRISFEFHNGKIKQANFDPKAIEHQDS | -0.176
DEEKLAENFLETMQNIAREGDEEKMADLFDPNAEIQVGDKSYQGREDVLELNRREFERYDHVRIDVKRFSVKNGQLDAEMSVTFSVNGKTDSHDQRLRATLHNGRLKAKHRTNG | 0.476
DEEKLDKVMKMVRDALQKGDQEKAQKLVKPDGHFQVGDQELNGYDQVRKYYKKVKDLGAEAHVKKTDVRGNTFRLEYDARLKGVQVTIRLEVRVKDEKVDEARADMTEDYAKHVTKG | 0.53
DEEKLDVARQYFEAVERGDEDRALELVDKDVRVDVGEKRVRGREEAKTQIRREEEEIRLRVEHVDFTAKGDRVRVRVVQVENINGRPVRFHYTMNMTMHNGRIKRIDVQIPEEVQEQLRG | -0.146
DEEKLEELAEEILQMLQTGDPDQARRMADEDVRAEYGDKQYTGKERLVEVVRKLKDRADHARINSFEVEGENIVADFVMVVDGQERRVRMTARVENGRIKEVRVKTS | 0.96
DEEKLEKFARNFEKVVERGDEDKFRSQADPNVQAVIGDKRIHGDEHLAHWMNKLRSHIDHFRVVDMRVQGEEIHLDVKFVVDGRRVRFIIEIEVHNGHITRFTVHVTDEEKWRRREK | 0.335
DEEKLHTIAKKAADIVQSGDEEKIIRLADPNAEMRIGDQELHGMDDAKRVLHEFMKRVDHVSVKTWHVQGNRIRLDVKFEVNGRDIRVELDITIENGEIDSMEFDPRARDAQKT | 0.183
DEEKLKKVIDTLQKALQNGNPDEIVKVIDKTVKFKLGDETFEGQEDARKVIKRLRDQGMEFHVERQEVTGDQAKVQTVWHAGDVEMHMHVTYDVDGDKVKRVEVRWDEEAKKAVKKG | 0.562
DEEKLKRIWQEIMDVWRTNNEDRMTNLFDENATVVVGDETYRGREDVNKALHEFNKRVDNINVTRLDVDGDKANLKAELTYNGRTIDITLRITLRNGRIEEMTVDPEVMKTARS | 0.71
DEEKLMRNMIKKVSKLLKEGNWDEIANNADKNAKYDVGDTEVHGKEHAQEMHDRFRQNVDHAELSVTRVDVKGDKVQVHVDHSFTNNGRKHKFHLIFWASNVNGRMVIKSVQQK | 0.565
DEEKLREMMKKWQKVVQEKNTDEAKKLYHPNGEWENGSERDQGVEKVVKAIKTAQEKGFEFQIREVEVKGDKATMIYDLRNGDKTVTFHVEMEVDGGRVKRVRAKVSEEAKKLLTKG | 0.511
DEEKLRKDMEEAFRLVTQGNPEEFADRFRDNPRMHVGDKEYHGREEARKAITTLVKHIDRIELHHIDIQGDKAEVRYRATVNGKRADHVMRIEANNGQLQRASVDPDLVTSVLR | -0.347
DEEKLRKMVETLIQAVQNGNLEKIRQMVKENVEFTLGDKTYKGQEDALKIVKHLQQVGAEAHVERQEITGDEAKVKTQWHVGDHTMEVEVVYYVRDDKVEKVEINWSEEAKKAIKAG | 1.17
